We go through four molecules from patent publication US20240400675A1 (published 2024).

One assay deals with T1, human CLDN5 (human, UniProt O00501 1-218).
T1 construct: whole, on cells
T1 sequence (looked up): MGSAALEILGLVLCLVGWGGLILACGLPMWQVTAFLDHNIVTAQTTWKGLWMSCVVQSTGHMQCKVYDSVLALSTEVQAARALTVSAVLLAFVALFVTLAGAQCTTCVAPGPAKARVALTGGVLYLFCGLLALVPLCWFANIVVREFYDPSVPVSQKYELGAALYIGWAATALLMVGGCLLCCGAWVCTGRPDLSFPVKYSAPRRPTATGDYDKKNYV
Description: flow cytometry on transfected cells.

The target of another assay is T2, human CLDN8 (human, UniProt P56748 1-225).
T2 construct: whole, on cells
T2 sequence (looked up): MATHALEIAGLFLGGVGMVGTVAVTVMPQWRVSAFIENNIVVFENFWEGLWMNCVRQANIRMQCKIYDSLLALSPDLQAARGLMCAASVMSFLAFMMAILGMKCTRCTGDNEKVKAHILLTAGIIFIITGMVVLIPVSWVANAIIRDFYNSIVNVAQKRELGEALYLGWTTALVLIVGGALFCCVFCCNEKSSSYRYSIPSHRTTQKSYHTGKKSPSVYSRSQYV
Description: flow cytometry on transfected cells. (A flow cytometer gives signals particle by particle.)

The next assay has as its target T3, human CLDN17 (human, UniProt P56750 1-224).
T3 construct: whole, on cells
T3 sequence (looked up): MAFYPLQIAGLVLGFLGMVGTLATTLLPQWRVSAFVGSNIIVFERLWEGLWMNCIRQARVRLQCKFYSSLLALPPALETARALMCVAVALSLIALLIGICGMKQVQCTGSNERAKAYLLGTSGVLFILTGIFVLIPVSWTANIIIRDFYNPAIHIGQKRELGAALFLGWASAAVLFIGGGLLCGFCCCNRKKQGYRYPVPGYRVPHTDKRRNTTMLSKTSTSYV
In words: flow cytometry on transfected cells.

Another assay deals with T4, human CLDN6 (human, UniProt P56747 1-220).
T4 construct: also called Claudin 6
T4 sequence: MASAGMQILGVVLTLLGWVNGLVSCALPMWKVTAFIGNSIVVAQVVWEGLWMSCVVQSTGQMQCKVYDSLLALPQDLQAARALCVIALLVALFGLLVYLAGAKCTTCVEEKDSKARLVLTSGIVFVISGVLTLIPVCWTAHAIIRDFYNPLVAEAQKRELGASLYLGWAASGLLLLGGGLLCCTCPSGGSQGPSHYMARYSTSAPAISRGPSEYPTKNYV
Description: flow cytometry on transfected HEK293E cells. How it is done:
(§1) The following experiments used to screen CLDN6 binding domains were generally performed as follows. HEK293T or HEK293E cells were respectively stably or transiently transfected to express CLDN6, CLND9, or other targets of interest. 48 hours post transfection, cells were harvested and incubated with dilutions of the indicated test articles for 1 hour at 4° C. […] Binding was then assessed via flow cytometry.

For a further assay, the target named is T5, CLDN6 I143V isotype (human, UniProt P56747 1-220).
T5 chain: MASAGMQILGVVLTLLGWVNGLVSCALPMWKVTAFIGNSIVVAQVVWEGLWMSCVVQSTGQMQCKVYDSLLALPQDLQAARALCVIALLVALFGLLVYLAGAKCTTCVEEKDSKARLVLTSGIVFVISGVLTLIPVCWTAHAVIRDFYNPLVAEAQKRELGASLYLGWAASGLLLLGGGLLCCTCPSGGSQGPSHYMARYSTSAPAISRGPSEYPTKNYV
Description: flow cytometry on transfected HEK293E cells. How it is done:
as §1

Another assay deals with T6, mouse CLDN6 (mouse, UniProt Q9Z262 1-219).
T6 construct: whole, on cells; also called murine CLDN6
T6 sequence (looked up): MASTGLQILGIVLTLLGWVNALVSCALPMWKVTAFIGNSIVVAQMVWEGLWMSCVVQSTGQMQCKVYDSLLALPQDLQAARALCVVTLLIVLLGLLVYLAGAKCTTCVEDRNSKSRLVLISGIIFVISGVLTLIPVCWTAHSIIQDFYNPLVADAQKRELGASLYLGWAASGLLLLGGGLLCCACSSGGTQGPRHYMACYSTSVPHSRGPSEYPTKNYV
Description: flow cytometry on transfected HEK293E cells. How it is done:
as §1

B1: XENP34638 (C6-30_H2L1 x CD3 bsAb in the 2+1 Fab2-scFv-Fc format) (bispecific antibody)
heavy 1: EVQLVQSGAEVKKPGESLRISCKTSGYTFTEYTMHWVRQMPGKSLEWMGGIDPNNGNTHYNQKFQGHVTISVDKSISTAYLQWSSLKASDTAMYYCARIYYFGRLYFDFWGAGTLVTVSSASTKGPSVFPLAPSSKSTSGGTAALGCLVKDYFPEPVTVSWNSGALTSGVHTFPAVLQSSGLYSLSSVVTVPSSSLGTQTYICNVNHKPSDTKVDKKVEPKSCDKTHTCPPCPAPPVAGPSVFLFPPKPKDTLMISRTPEVTCVVVDVKHEDPEVKFNWYVDGVEVHNAKTKPREEEYNSTYRVVSVLTVLHQDWLNGKEYKCKVSNKALPAPIEKTISKAKGQPREPQVYTLPPSREEMTKNQVSLTCDVSGFYPSDIAVEWESDGQPENNYKTTPPVLDSDGSFFLYSKLTVDKSRWEQGDVFSCSVMHEALHNHYTQKSLSLSPGK
heavy 2: EVQLVQSGAEVKKPGESLRISCKTSGYTFTEYTMHWVRQMPGKSLEWMGGIDPNNGNTHYNQKFQGHVTISVDKSISTAYLQWSSLKASDTAMYYCARIYYFGRLYFDFWGAGTLVTVSSASTKGPSVFPLAPSSKSTSGGTAALGCLVKDYFPEPVTVSWNSGALTSGVHTFPAVLQSSGLYSLSSVVTVPSSSLGTQTYICNVNHKPSNTKVDKKVEPKSCGGGGSGGGGSQAVVTQEPSLTVSPGGTVTLTCGSSTGAVTTSNYANWVQQKPGKSPRGLIGGTNKRAPGVPARFSGSLLGGKAALTISGAQPEDEADYYCALWYSNHWVFGGGTKLTVLGKPGSGKPGSGKPGSGKPGSEVQLVESGGGLVQPGGSLRLSCAASGFTFSTYAMNWVRQAPGKGLEWVGRIRSKYNNYATYYADSVKGRFTISRDDSKNTLYLQMNSLRAEDTAVYYCVRHGNFGDSYVSWFAYWGQGTLVTVSSGGGGSGGGGSKTHTCPPCPAPPVAGPSVFLFPPKPKDTLMISRTPEVTCVVVDVKHEDPEVKFNWYVDGVEVHNAKTKPREEQYNSTYRVVSVLTVLHQDWLNGKEYKCKVSNKALPAPIEKTISKAKGQPREPQVYTLPPSREQMTKNQVKLTCLVKGFYPSDIAVEWESNGQPENNYKTTPPVLDSDGSFFLYSKLTVDKSRWQQGNVFSCSVMHEALHNHYTQKSLSLSPGK
light: not shown
notes: copies: 1 + 1 + 2
With B1, the binding result in the assay with human CLDN5 is “no binding”; with human CLDN8 it was “no binding”; in the assay with human CLDN17 it was “no binding”; with human CLDN6, “binds”; with CLDN6 I143V isotype, “binds”; in the assay with mouse CLDN6 it was “binds”.

B2: XENP34637 (C6-30_H2L1 x CD3 bsAb in the 1+1 Fab-scFv-Fc format) (bispecific antibody)
heavy: EVQLVQSGAEVKKPGESLRISCKTSGYTFTEYTMHWVRQMPGKSLEWMGGIDPNNGNTHYNQKFQGHVTISVDKSISTAYLQWSSLKASDTAMYYCARIYYFGRLYFDFWGAGTLVTVSSASTKGPSVFPLAPSSKSTSGGTAALGCLVKDYFPEPVTVSWNSGALTSGVHTFPAVLQSSGLYSLSSVVTVPSSSLGTQTYICNVNHKPSDTKVDKKVEPKSCDKTHTCPPCPAPPVAGPSVFLFPPKPKDTLMISRTPEVTCVVVDVKHEDPEVKFNWYVDGVEVHNAKTKPREEEYNSTYRVVSVLTVLHQDWLNGKEYKCKVSNKALPAPIEKTISKAKGQPREPQVYTLPPSREEMTKNQVSLTCDVSGFYPSDIAVEWESDGQPENNYKTTPPVLDSDGSFFLYSKLTVDKSRWEQGDVFSCSVMHEALHNHYTQKSLSLSPGK
scFv-Fc: not shown
light: not shown
notes: copies: 1 + 1 + 1
Take B2: the binding result in the assay with human CLDN5 was “no binding”; in the assay with human CLDN8, “no binding”; in the assay with human CLDN17 it was “no binding”; with human CLDN6, “binds”; in the assay with CLDN6 I143V isotype, “binds”; with mouse CLDN6, “binds”.

B3: XENP34233 (C6-30_H1L1 x CD3 bsAb in the 2+1 Fab2-scFv-Fc format) (bispecific antibody)
heavy 1: QVQLVQSGAEVKKPGASVKVSCKTSGYTFTEYTMHWVRQAPGQSLEWMGGIDPNNGNTHYNQKFQGRVTITVDKSASTAYMELSSLRSEDTAVYYCARIYYFGRLYFDFWGAGTLVTVSSASTKGPSVFPLAPSSKSTSGGTAALGCLVKDYFPEPVTVSWNSGALTSGVHTFPAVLQSSGLYSLSSVVTVPSSSLGTQTYICNVNHKPSDTKVDKKVEPKSCDKTHTCPPCPAPPVAGPSVFLFPPKPKDTLMISRTPEVTCVVVDVKHEDPEVKFNWYVDGVEVHNAKTKPREEEYNSTYRVVSVLTVLHQDWLNGKEYKCKVSNKALPAPIEKTISKAKGQPREPQVYTLPPSREEMTKNQVSLTCDVSGFYPSDIAVEWESDGQPENNYKTTPPVLDSDGSFFLYSKLTVDKSRWEQGDVFSCSVMHEALHNHYTQKSLSLSPGK
heavy 2: QVQLVQSGAEVKKPGASVKVSCKTSGYTFTEYTMHWVRQAPGQSLEWMGGIDPNNGNTHYNQKFQGRVTITVDKSASTAYMELSSLRSEDTAVYYCARIYYFGRLYFDFWGAGTLVTVSSASTKGPSVFPLAPSSKSTSGGTAALGCLVKDYFPEPVTVSWNSGALTSGVHTFPAVLQSSGLYSLSSVVTVPSSSLGTQTYICNVNHKPSNTKVDKKVEPKSCGGGGSGGGGSQAVVTQEPSLTVSPGGTVTLTCGSSTGAVTTSNYANWVQQKPGKSPRGLIGGTNKRAPGVPARFSGSLLGGKAALTISGAQPEDEADYYCALWYSNHWVFGGGTKLTVLGKPGSGKPGSGKPGSGKPGSEVQLVESGGGLVQPGGSLRLSCAASGFTFSTYAMNWVRQAPGKGLEWVGRIRSKYNNYATYYADSVKGRFTISRDDSKNTLYLQMNSLRAEDTAVYYCVRHGNFGDSYVSWFAYWGQGTLVTVSSGGGGSGGGGSKTHTCPPCPAPPVAGPSVFLFPPKPKDTLMISRTPEVTCVVVDVKHEDPEVKFNWYVDGVEVHNAKTKPREEQYNSTYRVVSVLTVLHQDWLNGKEYKCKVSNKALPAPIEKTISKAKGQPREPQVYTLPPSREQMTKNQVKLTCLVKGFYPSDIAVEWESNGQPENNYKTTPPVLDSDGSFFLYSKLTVDKSRWQQGNVFSCSVMHEALHNHYTQKSLSLSPGK
light: not shown
notes: copies: 1 + 1 + 2
With B3, the binding result with human CLDN5 was “no binding”; with human CLDN8 it was “no binding”; with human CLDN17, “no binding”; with human CLDN6 it was “binds”; with CLDN6 I143V isotype, “binds”; with mouse CLDN6 it was “binds”.

B4: XENP34229 (C6-30_H1L1 x CD3 bsAb in the 1+1 Fab-scFv-Fc format) (bispecific antibody)
heavy: QVQLVQSGAEVKKPGASVKVSCKTSGYTFTEYTMHWVRQAPGQSLEWMGGIDPNNGNTHYNQKFQGRVTITVDKSASTAYMELSSLRSEDTAVYYCARIYYFGRLYFDFWGAGTLVTVSSASTKGPSVFPLAPSSKSTSGGTAALGCLVKDYFPEPVTVSWNSGALTSGVHTFPAVLQSSGLYSLSSVVTVPSSSLGTQTYICNVNHKPSDTKVDKKVEPKSCDKTHTCPPCPAPPVAGPSVFLFPPKPKDTLMISRTPEVTCVVVDVKHEDPEVKFNWYVDGVEVHNAKTKPREEEYNSTYRVVSVLTVLHQDWLNGKEYKCKVSNKALPAPIEKTISKAKGQPREPQVYTLPPSREEMTKNQVSLTCDVSGFYPSDIAVEWESDGQPENNYKTTPPVLDSDGSFFLYSKLTVDKSRWEQGDVFSCSVMHEALHNHYTQKSLSLSPGK
scFv-Fc: QAVVTQEPSLTVSPGGTVTLTCGSSTGAVTTSNYANWVQQKPGKSPRGLIGGTNKRAPGVPARFSGSLLGGKAALTISGAQPEDEADYYCALWYSNHWVFGGGTKLTVLGKPGSGKPGSGKPGSGKPGSEVQLVESGGGLVQPGGSLRLSCAASGFTFSTYAMNWVRQAPGKGLEWVGRIRSKYNNYATYYADSVKGRFTISRDDSKNTLYLQMNSLRAEDTAVYYCVRHGNFGDSYVSWFAYWGQGTLVTVSSEPKSSDKTHTCPPCPAPPVAGPSVFLFPPKPKDTLMISRTPEVTCVVVDVKHEDPEVKFNWYVDGVEVHNAKTKPREEQYNSTYRVVSVLTVLHQDWLNGKEYKCKVSNKALPAPIEKTISKAKGQPREPQVYTLPPSREQMTKNQVKLTCLVKGFYPSDIAVEWESNGQPENNYKTTPPVLDSDGSFFLYSKLTVDKSRWQQGNVFSCSVMHEALHNHYTQKSLSLSPGK
light: not shown
notes: copies: 1 + 1 + 1
Turning to B4, the binding result in the assay with human CLDN5 is given as “no binding”; with human CLDN8 it was “no binding”; with human CLDN17 it was “no binding”; with human CLDN6, “binds”; in the assay with CLDN6 I143V isotype, “binds”; in the assay with mouse CLDN6, “binds”.
